Test results published in patent US20260116920A1 (PEPTIDREAM, published 2026).
Starred links: 1 amine or outer side, 2 acyl side, 3 side chain; linkers in the order of their positions; H or OH if unused. Positions of bridges follow the written chain, without caps; N, C: chain ends. Non-standard residues stand in square brackets, D forms with d. Primed or numbered codes have the meaning given here. No end group written: not given here. *: point of attachment. MeF3COO(PEG4Me) = (S)-3-(3-((2,5,8,11-tetraoxatridecan-13-yl)carbamoyl)phenyl)-2-(methylamino)propanoic acid, COCCOCCOCCOCCNC(=O)c1cccc(C[C@@H](C(=O)[*:2])N(C)[*:1])c1; MeF4COO(PEG4Me)″ = N-methyl-4-carboxy-Phe with the carboxyl amidated by a methyl-capped PEG4 amine, COCCOCCOCCOCCNC(=O)c1ccc(C[C@@H](C(=O)[*:2])N(C)[*:1])cc1; F3COO(PEG4Me) = (S)-3-(3-((2,5,8,11-tetraoxatridecan-13-yl)carbamoyl)phenyl)-2-aminopropanoic acid, COCCOCCOCCOCCNC(=O)c1cccc(C[C@H](N[*:1])C(=O)[*:2])c1; F3COO(PEG4Me)″ = 3-carboxy-Phe with the carboxyl amidated by a methyl-capped PEG4 amine, COCCOCCOCCOCCNC(=O)c1cccc(C[C@H](N[*:1])C(=O)[*:2])c1; E(PEG4Me) = (S)-18-amino-15-oxo-2,5,8,11-tetraoxa-14-azanonadecane-19-oic acid, COCCOCCOCCOCCNC(=O)CC[C@H](N[*:1])C(=O)[*:2]; MeF4COO(PEG4Me) = N-methyl Phe with 4-carboxamide to PEG4Me amine, COCCOCCOCCOCCNC(=O)c1ccc(C[C@@H](C(=O)[*:2])N(C)[*:1])cc1; KCOpipzaa = N6-(4-(carboxymethyl)piperazine-1-carbonyl)-L-lysine, O=C(NCCCC[C@H](N[*:1])C(=O)[*:2])N1CCN(CC(=O)[*:3])CC1; Phe(4-OMe)(3) = (S)-2-amino-3-(4-methoxyphenyl)propanoic acid (source code F4OMe), COc1ccc(C[C@H](N[*:1])C(=O)[*:2])cc1; F4aao = (S)-2-amino-3-(4-(carboxymethoxy)phenyl)propanoic acid, O=C([C@H](Cc1ccc(OCC(=O)[*:3])cc1)N[*:1])[*:2]; MePEG4c = K(MePEG4c) = (S)-20-amino-14-oxo-2,5,8,11-tetraoxa-15-azahenicosane-21-oic acid, COCCOCCOCCOCCC(=O)*; Trp(1-CH2CO) = O=C([C@H](Cc1cn(CC(=O)[*:3])c2ccccc12)N[*:1])[*:2]; MeF3COO(PEG4Me)″ = N-methyl analogue of F3COO(PEG4Me); Trp(5-Cl) = N[C@@H](Cc1c[nH]c2ccc(Cl)cc12)C(=O)O; Nle(6-morpholino) = N[C@@H](CCCCN1CCOCC1)C(=O)O; Trp(7-aza) = N[C@@H](Cc1c[nH]c2ncccc12)C(=O)O; NMePhe(3-Cl) = CN[C@@H](Cc1cccc(Cl)c1)C(=O)O; NMePhe(4-F) = CN[C@@H](Cc1ccc(F)cc1)C(=O)O; 3Pal(6-NH2) = Nc1ccc(C[C@H](N)C(=O)O)cn1; NMeW = CN[C@@H](Cc1c[nH]c2ccccc12)C(=O)O; NMeY = CN[C@@H](Cc1ccc(O)cc1)C(=O)O; Lys(Me2) = CN(C)CCCC[C@H](N)C(=O)O; NMeR = CN[C@@H](CCCNC(=N)N)C(=O)O; NMeF = CN[C@@H](Cc1ccccc1)C(=O)O; 4Pal = N[C@@H](Cc1ccncc1)C(=O)O

B1: 894_3149 (peptide)
peptide: {CH2CO}-AV[NMePhe(3-Cl)]VWNY[Phe(4-OMe)(3)]IIRRF[NMeY]C
modifications: thioether N-15; not fully specified (C-terminus)
B2: 849_0408 (peptide)
peptide: {CH2CO}-AV[NMePhe(3-Cl)]VWNY[F4aao]II[E(PEG4Me)]QF[NMeY]C-NH2
modifications: thioether N-15; also: linker PEG4c, attachment site not given here
B3: 894_0264 (peptide)
peptide: {CH2CO}-AV[NMeF]VWNYYIIRK(MePEG4c)FYC-NH2
modifications: thioether N-15; not fully specified (residue 14)
B4: 849_0406 (peptide)
peptide: {CH2CO}-AV[NMePhe(3-Cl)]VWNY[F4aao]II[E(PEG4Me)]KF[NMeY]C-NH2
modifications: thioether N-15; also: linker PEG4c, attachment site not given here
B5: 849_0411 (peptide)
peptide: {CH2CO}-AV[NMePhe(3-Cl)]VWNY[F4aao]II[E(PEG4Me)]R[F3COO(PEG4Me)″][NMeY]C-NH2
modifications: thioether N-15; also: linker PEG4c, attachment site not given here
B6: 849_0403 (peptide)
peptide: {CH2CO}-AV[NMePhe(3-Cl)]VWN[3Pal(6-NH2)][F4aao]II[E(PEG4Me)][KCOpipzaa][4Pal][NMeY]C-NH2
modifications: thioether N-15; also: linker PEG4c, attachment site not given here
B7: 849_0416 (peptide)
peptide: {CH2CO}-AV[NMePhe(3-Cl)]V[Trp(7-aza)]NY[F4aao]IIQR[F3COO(PEG4Me)][MeF4COO(PEG4Me)]C-NH2
modifications: thioether N-15; also: linker PEG4c, attachment site not given here
notes: also called 894_0416
B8: 849_0405 (peptide)
peptide: {CH2CO}-AV[NMePhe(3-Cl)]VWNY[F4aao]II[E(PEG4Me)][Nle(6-morpholino)]F[NMeY]C-NH2
modifications: thioether N-15; also: linker PEG4c, attachment site not given here
B9: 849_0400 (peptide)
peptide: {CH2CO}-AV[NMePhe(3-Cl)]V[Trp(1-CH2CO)]NY[F4aao]II[E(PEG4Me)][KCOpipzaa]F[NMeY]C-NH2
modifications: thioether N-15; also: linker PEG4c, place not given here
B10: 849_0414 (peptide)
peptide: {CH2CO}-AV[NMePhe(3-Cl)]VWNY[F4aao]IIQR[F3COO(PEG4Me)][MeF3COO(PEG4Me)″]C-NH2
modifications: thioether N-15; also: linker G-ds-ds-ds-ds-ds, attachment site not given here
B11: 894_0252 (peptide)
peptide: {CH2CO}-AV[NMeF]V[Trp(5-Cl)]NYYIIR[dR]FYC-NH2
modifications: thioether N-15; not fully specified (residue 14); also: linker PEG4c, place not given here
B12: 849_0402 (peptide)
peptide: {CH2CO}-AV[NMePhe(3-Cl)]V[Trp(1-CH2CO)]N[3Pal(6-NH2)][F4aao]II[E(PEG4Me)]R[4Pal][NMeY]C-NH2
modifications: thioether N-15; also: linker PEG4c, place not given here
B13: 849_0415 (peptide)
peptide: {CH2CO}-AV[NMePhe(3-Cl)]V[Trp(7-aza)]NY[F4aao]II[E(PEG4Me)]R[F3COO(PEG4Me)][NMeY]C-NH2
modifications: thioether N-15; also: linker PEG4c, attachment site not given here
B14: 894_0263 (peptide)
peptide: {CH2CO}-AV[NMeF]VWNYYIIK(MePEG4c)RFYC-NH2
modifications: thioether N-15; not fully specified (residue 14)
B15: 849_0398 (peptide)
peptide: {CH2CO}-AV[NMePhe(3-Cl)]VWNY[F4aao]II[E(PEG4Me)]RF[NMeY]C-NH2
modifications: thioether N-15; also: linker PEG4c, place not given here
B16: 849_0401 (peptide)
peptide: {CH2CO}-AV[NMePhe(3-Cl)]VWNY[F4aao]II[E(PEG4Me)][KCOpipzaa]F[NMeY]C-NH2
modifications: thioether N-15; also: linker PEG4c, place not given here
B17: 849_0407 (peptide)
peptide: {CH2CO}-AV[NMePhe(3-Cl)]VWNY[F4aao]II[E(PEG4Me)][Lys(Me2)]F[NMeY]C-NH2
modifications: thioether N-15; also: linker PEG4c, attachment site not given here
B18: 894_0267 (peptide)
peptide: {CH2CO}-AV[NMePhe(4-F)]V[Trp(5-Cl)]NYYII[NMeR]K(MePEG4c)FYC-NH2
modifications: thioether N-15; not fully specified (residue 14)
B19: 894_0260 (peptide)
peptide: {CH2CO}-AV[NMePhe(4-F)]V[NMeW]NYYIIR[dR]FYC-NH2
modifications: thioether N-15; not fully specified (residue 14); also: linker PEG4c, place not given here
B20: 849_0417 (peptide)
peptide: {CH2CO}-AV[NMePhe(3-Cl)]V[Trp(7-aza)]NY[F4aao]IIQR[F3COO(PEG4Me)][MeF3COO(PEG4Me)″]C-NH2
modifications: thioether N-15; also: linker PEG4c, place not given here
B21: 894_0256 (peptide)
peptide: {CH2CO}-AV[NMePhe(4-F)]V[Trp(5-Cl)]NYYIIR[dR]FYC-NH2
modifications: thioether N-15; not fully specified (residue 14); also: linker PEG4c, place not given here
B22: 849_0412 (peptide)
peptide: {CH2CO}-AV[NMePhe(3-Cl)]VWNY[F4aao]IIQR[F3COO(PEG4Me)″][MeF4COO(PEG4Me)″]C-NH2
modifications: thioether N-15; also: linker PEG4c, attachment site not given here
B23: 849_0410 (peptide)
peptide: {CH2CO}-AV[NMePhe(3-Cl)]VWNY[F4aao]II[E(PEG4Me)]R[E(PEG4Me)][NMeY]C-NH2
modifications: thioether N-15; also: linker G-ds-ds-ds-ds-ds, attachment site not given here
B24: 849_0409 (peptide)
peptide: {CH2CO}-AV[NMePhe(3-Cl)]VWNY[F4aao]II[E(PEG4Me)]R[E(PEG4Me)][NMeY]C-NH2
modifications: thioether N-15; also: linker PEG4c, attachment site not given here
B25: 849_0418 (peptide)
peptide: {CH2CO}-AV[NMePhe(3-Cl)]V[Trp(7-aza)]NY[F4aao]IIERFYC-NH2
modifications: thioether N-15; not fully specified (residues 11, 14); also: linker PEG4c, place not given here
B26: 849_0413 (peptide)
peptide: {CH2CO}-AV[NMePhe(3-Cl)]VWNY[F4aao]IIQR[F3COO(PEG4Me)″][MeF3COO(PEG4Me)]C-NH2
modifications: thioether N-15; also: linker PEG4c, attachment site not given here

Target: T1, human transferrin receptor (hTfR) (human, UniProt P02786 89-760)
T1 construct: used as 0.5 uM hTfR dimer solution, immobilised on an NTA sensor chip (Ni capture plus EDC/NHS coupling); also called human TfR; TfR1
T1 sequence (P02786 89-760 limits assumed): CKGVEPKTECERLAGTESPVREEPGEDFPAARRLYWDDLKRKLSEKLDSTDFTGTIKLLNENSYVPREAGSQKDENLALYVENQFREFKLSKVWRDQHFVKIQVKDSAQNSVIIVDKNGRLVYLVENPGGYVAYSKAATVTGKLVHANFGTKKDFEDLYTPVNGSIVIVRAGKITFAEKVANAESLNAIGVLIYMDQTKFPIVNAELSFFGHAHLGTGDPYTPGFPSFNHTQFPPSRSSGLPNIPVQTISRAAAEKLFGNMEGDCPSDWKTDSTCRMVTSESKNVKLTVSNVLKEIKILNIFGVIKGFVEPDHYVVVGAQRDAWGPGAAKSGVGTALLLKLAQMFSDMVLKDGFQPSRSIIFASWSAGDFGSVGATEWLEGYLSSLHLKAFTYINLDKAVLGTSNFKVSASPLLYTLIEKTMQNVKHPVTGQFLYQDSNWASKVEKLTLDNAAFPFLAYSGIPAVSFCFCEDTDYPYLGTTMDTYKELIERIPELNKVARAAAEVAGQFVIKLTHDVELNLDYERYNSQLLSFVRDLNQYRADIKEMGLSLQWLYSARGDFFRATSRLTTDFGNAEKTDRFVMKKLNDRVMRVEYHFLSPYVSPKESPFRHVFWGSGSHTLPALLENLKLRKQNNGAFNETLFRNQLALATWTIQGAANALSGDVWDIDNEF
Experiment: SPR; B = KD 1-100 nM
Protocol: NTA sensor chip (Global Life Sciences Technologies Japan K.K.) was inserted into BiacoreT200 (Global Life Sciences Technologies Japan K.K.), then the priming operation was performed three times by using running buffer containing: 10 mM HEPES pH 8.0 (Nacalai Tesque, Inc.), 150 mM NaCl (Nacalai Tesque, Inc.), 0.05% Tween 20 (Nacalai Tesque, Inc.), 0.1% BSA (SIGMA-ALDRICH) and 1.0% DMSO (FUJIFILM Wako Pure Chemical Corporation), and equilibrated at a flow rate of 30 μL/min. 350 mM EDTA solution was reacted at a flow rate of 10 μL/min for 60 seconds, 0.5 mM […] solution (Kishida Chemical Co., Ltd.) was reacted at a flow rate of 10 μL/min for 60 seconds, and then the NTA sensor chip was washed with 3 mM EDTA solution (Nacalai Tesque, Inc.) at a flow rate of 10 μL/min for 60 seconds. After mixing 50 μL each of 60 mM EDC solution (Global Life Science Technologies Japan K.K.) and 650 mM NHS solution (Global Life Science Technologies Japan K.K.), the reaction was carried out at a flow rate of 10 μL/min for 420 seconds. 150 μL of 0.5 μM hTfR dimer solution was prepared by dilution with running buffer and reacted at a flow rate of 10 μL/min for 300 seconds to immobilize hTfR on the NTA sensor chip. For the human transferrin receptor (hTfR), recombinant hTfR described in Example 2 of WO2018/124121 was used. After immobilization, capping was performed by reacting with 1.0 M ethanolamine solution (Global Life Sciences Technologies Japan K.K.) at a flow rate of 10 μL/min for 420 seconds. Peptide lysate prepared in DMSO solution to 10 mM was diluted with running buffer to be a final concentration of 10 μM peptide lysate, then peptide solutions of 100 nM, 50 nM, 25 nM, 10 nM, and 5 nM were prepared. Using the above samples, the kinetics of the peptide against hTfR was obtained by SPR measurement.
The kinetic evaluation model was single-cycle kinetics, and curve fitting was performed using Biacore T200 Evaluation Software Version 3.0 (Global Life Science Technologies Japan K.K.). The binding of the peptide to hTfR was evaluated by performing curve fitting on the obtained sensorgram by least squares method and obtaining the KD value.

KD, 0.001 to 0.1 µM:
B1, B2, B3, B4, B5, B6, B7, B8, B9, B10, B11, B12, B13, B14, B15, B16, B17, B18, B19, B20, B21, B22, B23, B24, B25, B26
